# B1: SSAP_260: SEQ ID NO: 429; Clostridium cochlearium (protein, listed as Clostridium cochlearium)
# chain: ATNESLKNQLATKKETGIGSAGNTIKSLINSPVIKKRFEEVLDKRAPQYMSSIVNLVNSDTNLKKCDQMSVIASCMVAATMDLPVDKNLGYAWIVPYGNKAQFQMGYKGYVQLALRTGQYKSINVIEVHEGELEEWNPLTEELKIDFSKKESDAVIGYAGYFELLNGFKKSTYWTKEQITKHKNKFSKSDFGWKKDFDAMAKKTVLRNMLSKWGILSIEMQNAYTADHGVIKNEIMETGEVKENVEYIEADFESYEGTSIEEGGSNE
# B2: SSAP_292: SEQ ID NO: 461; Paenibacillus rhizosphaerae (protein, listed as Paenibacillus rhizosphaerae)
# chain: SSKLVEINSKLDSFLDAQHKAMPKGFNKTRFLQNSMSVLRDIEGLEQCDPKSVALVMLKGAFLGLDFFNKECYPVVYAGKVEFQTDYKGEVKLVKKYSTKPVREIYAKLVRQGDDFSEEIVAGSQTINFKPLPFNNGEIVGAFAVVNYVDGTMQYDTMSTEEIEKIKVNFSRKSKKTNEYSKAWVVTPGEMYKKTVLRRLCKTIDLDFDTIEQAQAFEDAADMDFNQDSKPQQQSPLNPMVIDVEYEEVKEEQADAAEQE
# B3: SSAP_284: SEQ ID NO: 453; Paenibacillus sp. VMFN-D1 (protein, listed as Paenibacillus sp.)
# chain: AKALLENKLQERAAGASTPSTQGTSLKALLNSPAIKKRFDELLDKRSAQYMTSIVNLYNSDAMLQKAEPMSVISSCIVAATLDLPVDKNLGYAWIVPYSGKAQFQLGYKGYIQLALRTGQYKAINVIEVYEGELVKWNPLTEALELDFEKRKSDAVIGYAGYFELINGFRKSVYWTREQIESHRKKFSKSDFGWKKDYDAMAKKTIIRNMLSKWGILSIEMQDAYSKEIEAIPPLNNENEEDPPIDLTPEDYRVGDEPQDGKEQGEMNFE
# B4: SSAP_78: SEQ ID NO: 247 (protein)
# chain: RTDGTKEAGAAATAPTEGKAPAKAHKPADTIGAMIEKLKPQIERALPKHVTPDRMARMALTAIRNNPKLGQAEAVSLMGSIIQASQLGLEPNTPLGQCYIIPYNSKNGMQAQFQMGYKGIVDLAHRSGQYRQLTAHPVDEADEFRYSYGLNPDLVHVPAEKPSGKITHYYAVYHLTNGGFDFRVWSREKVEAHAKQYSKSFSSGPWQTNFDQMACKTVMIDLLRYAPKSVEIAKATSADNRTHTINPEDPDLNIDTIDGDFELEGEER
# B5: SSAP_207: SEQ ID NO: 376; Mycobacterium sp. 1245499.0 (protein, listed as Mycobacterium sp.)
# chain: TTQPEYKPVAQGADKQMTTGKLLKMLEPEIGRALPKGMDPDRICRLVMTEVRKNPMLTQCTQESFAGALLTASALGLEPGVNGEAWLVPYRDRKRGIVECQFIMGYNGVAKLFWQSPHADRLDAQLVCANDHFRYVKGLSPILEHVESDGDRGDPIAYYAIVGVKGAQPMWDVFKPEAIAQLRGGRVGTKGDIDDPQRWMERKTALKQVLKLAPKSTRLDLAIRADERSGSDLYKSQGMEVHAIEPGFIETEAEPETQEQ
# B6: SSAP_230: SEQ ID NO: 399; Leuconostoc pseudomesenteroides (protein)
# chain: ANEITLAKQLSSDKVVEQFAATAGESAKSFAKEVALTISGNPALQHAKLGTVIVEATKASALGLSLLPTVGEAYLVPYKGDAQFQLGYKGIVQLAMRSGQMKSFGAESVYEGENPKWDKYNQELVTDGEETGKIIGYYAFFTLVNGFKMAAYWPKEKVEAHRDRFSKSKKGPWSTDFDAMAKKTVLKSILQYAPKSSEMKRALAEDTQAEYVQAGIQDVTPEPANIEAPIETANAPEINAQEESLFGELSDVDKETAPNPFAQNLGGDN
# modifications: Leuconostoc pseudomesenteroides
# B7: SSAP_261: SEQ ID NO: 430; Peptoniphilus grossensis (protein, listed as Peptoniphilus grossensis)
# chain: TNIQKQENRALSPVNQMKNLLKNQGMQNLFADALKENKDRFLASIIDLYNGDTSLQDCNPKEVVMEALKAATLNLPINKNLGYAYIVPYNSKGTTRPQFQIGYKGYIQMAQRSGQYKALNAGILYEGMEVKRDFLRGTFEIIGEPKSDKVMGYFAYFQLLNGYEKAIYMTKDEVTEHAERYSQSYGSKYSPWKKQFDEMGQKTVIKKLLSKYGVLTTEFQDAVKEEEDREVLRATENNAMLEMTNPDEEEETIEVNPETGEIIEDDVKAPF
# B8: SSAP_312: SEQ ID NO: 481; Gallionellaceae bacterium CG1_02_56_997 (protein)
# chain: GRKEVERIRDGSRGYQAAKKYKKESTWDTDFVAMGLKTAIRRICKFLPKSPELATALAMDEQAGRQNLNLDDVINGSYTPVVDKDTGEIVDVADGGKTGNSNAATSTKLEKLEKIVAALRDANSVEALDEIYIRAEGDLDDANLEIAMREYRKCKDAISNSLI
# modifications: Gallionellaceae bacterium CG1_02_56_997
# B9: SSAP_201: SEQ ID NO: 370; Streptomyces reniochalinae (protein, listed as Streptomyces reniochalinae)
# chain: SQISNAVAKRDNSPGAMVQQYKADFSTVLPDHVKPDTWVRLAQGVLRRDKNLAQAAERNPGSLMTALLDCARLGHEPGTESFYLVPFGGEVQGIEGYRGVVERMYRAGAIASVKAEVVCQGDDFDYQPDMDKPRHRVDWFGDRGPIVGAYAYAIFKDGSTSRVAVINRAYIDKVKKESKGSDRATSPWMKWEEQMVLKTVAKRLEPWVPTSNEWRREQLRAAREVANEPTPPTTPAPPAPEQVDPDTGEVIDGELVDDTPTQ
# B10: SSAP_7: SEQ ID NO: 176 (protein)
# chain: STNDELKNKLANKQNGGQVASAQSLGLKGLLEAPTMRKKFESVLDKKAPQFLTSLLNLYNGDDYLQKTDPMTVVTSAMVAATLDLPIDKNLGYAWIVPYKGRAQFQLGYKGYIQLALRTGQYKSINVIEVRDGELLKWNRLTEEIELDLDNNTSEKVIGYCGYFQLINGFEKTVYWTRKEIEAHKKKFSKSDFGWKKDYDAMAKKTVLRNMLSKWGILSIDMQTAVTEDEAEPRERKDVTEDESIPDIIDAPITPSDTLEAGSEVQGSMI
# B11: SSAP_185: SEQ ID NO: 354; Pirellula sp. SH-Sr6A (protein, listed as Pirellula sp.)
# chain: SEATKEAKPETAIAKKPNGIKDWLKSDALKTQIASVAPKHMAPERVMRIALNAVSRTPKLADCTPESFMRCLLDLSSWGLEPDGRHAHLIPYGTECTLVLDYKGLVTLAYRSGWVKKIHADVVFEGDIFVYSLGTVCQHIPWEFRDDANKPEHKGHFRAAYCVVTMADGIEKHEVMTASEIDAIKAKSRSGNSGPWKDHYTEMAKKTVYRRASKWLPLSPEQADAMERDDDRIIDAVSVAVTQRLSKAAMPLIGANETGDTE
# B12: SSAP_255: SEQ ID NO: 424; Bacteroides eggerthii (protein, listed as Bacteroides eggerthii)
# chain: GTVTTVPQLKSMLANENVKSRFKEILGKKAPGFISSIVAVANSNTLLQKAEPQSIMNAAVIAATLDLPINPNLGFAYIIPYGNQASFQIGYKGMTQLAMRSGQYKTINVTEVYEGEIKSENRFTGEYTFGERKSDKIVGYMAYFSLTNGFEKYMYMSREECEKHGKKFSQTYKRGGGLWATDFDSMSKKTVLKMLISKYGILSIDMQRAQTFDQAVVKDDLVEKNIDEAEVSYEDNPTNADVRRNAMKEALEEAEVVDETTGEIFNQPAQ
# What was measured:
# Assay type in all cases: cell-based
# [1] = system: gene editing with Cas9; assay: Screen of 322 new SSAP proteins, gene editing activity with Cas9 (Table 5); set-up: Cas9 with SSAP activity: scale not given here
# In short: (§1)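 Read-out is gene editing activity. Candidates come from sequence data mining, are made synthetically, and are tested alongside either nuclease-active Cas9 or catalytically dead dCas9.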
# [2] = system: gene editing with dCas9; assay: Screen of 322 new SSAP proteins, gene editing activity with dCas9 (Table 5); set-up: dCas9 with SSAP activity: scale not given here
# In short: as §1
# [3] = system: gene editing with Cas9 and dCas9; assay: Screen of 322 new SSAP proteins, activity across all experiments (Cas9 and dCas9, Table 5); set-up: scale not given here
# In short: as §1
Molecule,Cas9 with SSAP activity [1],Cas9 with SSAP activity (normalized) [1],dCas9 with SSAP activity [2],dCas9 with SSAP activity (normalized) [2],Activity across all experiments [3]
B1,−3.745,−0.581,−7.734,−1.301,−5.739
B2,−4.432,−0.752,−7.905,−1.546,−6.169
B3,−1.673,−1.388,−8.073,−1.172,−4.873
B4,−0.849,−0.295,−7.766,−2.216,−4.307
B5,−4.938,−0.798,−8.053,−1.345,−6.496
B6,0.548,0.321,−7.949,−1.164,−3.700
B7,−0.535,−0.174,−7.740,−1.199,−4.137
B8,−0.905,−0.436,−0.097,−0.073,−0.501
B9,−0.461,−0.195,−8.036,−1.510,−4.249
B10,−7.628,−1.701,−7.447,−1.443,−7.537
B11,−1.825,−0.708,−8.201,−2.012,−5.013
B12,−0.273,−0.044,−7.473,,−3.873

# From patent publication US20250034594A1, “RNA-GUIDED GENOME RECOMBINEERING AT KILOBASE SCALE” (THE BOARD OF TRUSTEES OF THE LELAND STANFORD JUNIOR …, priority 2021, published 2025)
